Assay results taken from patent US20180118789A1.

Key:
[1] = molecular target: mouse melanocortin 3 receptor (mouse) (UniProt P33033); test: cell-based or functional assay
[2] = molecular target: mouse melanocortin 1 receptor (mouse) (UniProt Q01727); test: cell-based or functional assay
mouse melanocortin 1 receptor (mouse), sequence (Q01727 whole entry): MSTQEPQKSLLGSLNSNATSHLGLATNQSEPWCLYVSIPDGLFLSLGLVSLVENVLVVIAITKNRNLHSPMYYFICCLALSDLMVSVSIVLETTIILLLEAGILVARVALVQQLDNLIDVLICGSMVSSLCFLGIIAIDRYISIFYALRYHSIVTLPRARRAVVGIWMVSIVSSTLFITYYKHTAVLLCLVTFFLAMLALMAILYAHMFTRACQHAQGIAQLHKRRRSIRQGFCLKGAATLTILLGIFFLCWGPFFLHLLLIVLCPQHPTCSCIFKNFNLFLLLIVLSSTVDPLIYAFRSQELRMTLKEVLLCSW

mouse melanocortin 3 receptor (mouse), sequence (P33033 whole entry): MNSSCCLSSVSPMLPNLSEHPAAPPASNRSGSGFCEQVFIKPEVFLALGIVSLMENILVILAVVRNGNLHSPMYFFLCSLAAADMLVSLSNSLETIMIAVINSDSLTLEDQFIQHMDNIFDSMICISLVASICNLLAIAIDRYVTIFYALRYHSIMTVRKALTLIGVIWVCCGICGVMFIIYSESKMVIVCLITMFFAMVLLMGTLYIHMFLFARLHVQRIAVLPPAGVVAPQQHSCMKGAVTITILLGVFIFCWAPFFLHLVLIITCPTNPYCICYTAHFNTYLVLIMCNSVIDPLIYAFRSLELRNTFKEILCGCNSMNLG

EC50 (nM), agonist, cAMP AlphaScreen [1]: 0.09 nM
EC50 (nM), agonist, cAMP AlphaScreen [2]: 0.015 nM
Substance: NDP-MSH (4-Norleucine-7-D-Phenylalanine), Ac-Ser-Tyr-Ser-Nle-Glu-His-DPhe-Arg-Trp-Gly-Lys-Pro-Val-NH2 (peptide)
